{
  "source": "paper doi:10.1101/2020.04.13.035477",
  "experiment_in_all_cases": "SPR",
  "key": {"[1]": {"target": "H. polygyrus Alarmin Release Inhibitor (HpARI), full-length (Heligmosomoides polygyrus)"}, "[2]": {"target": "HpARI_CCP1/2 (truncation of HpARI lacking CCP3) (Heligmosomoides polygyrus)", "sequence (A0A3P7XL18 65-211)": "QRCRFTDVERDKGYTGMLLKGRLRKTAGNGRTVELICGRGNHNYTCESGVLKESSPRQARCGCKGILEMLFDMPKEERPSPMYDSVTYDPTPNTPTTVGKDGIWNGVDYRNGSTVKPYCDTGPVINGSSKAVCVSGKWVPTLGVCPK"}, "[3]": {"target": "HpARI_CCP2/3 (truncation of HpARI lacking CCP1) (Heligmosomoides polygyrus)", "sequence (A0A3P7XL18 126-297)": "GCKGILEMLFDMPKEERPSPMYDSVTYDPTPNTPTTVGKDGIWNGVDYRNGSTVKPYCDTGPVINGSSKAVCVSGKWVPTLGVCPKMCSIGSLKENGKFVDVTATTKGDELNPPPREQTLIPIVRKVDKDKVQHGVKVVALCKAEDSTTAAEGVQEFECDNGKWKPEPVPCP"}},
  "data": [
    {"substance": "recombinant murine IL-33 (from UniProt Q8BVZ5 1-266) (ligand)", "values": [
      {"measurement": "Kd", "setting": "[1]", "value": 1.1, "unit": "nM"},
      {"measurement": "koff", "setting": "[1]", "value": 0.00015, "unit": "s⁻¹"},
      {"measurement": "Kd", "setting": "[2]", "value": 9.8, "unit": "nM"},
      {"measurement": "koff", "setting": "[2]", "value": 0.003, "unit": "s⁻¹"},
      {"measurement": "Kd", "setting": "[3]", "value": 1.4, "unit": "nM"}
    ]}
  ]
}
